Test system: MS2 coat protein
Test: apparent KD of MS2 coat protein; designed switch direction (-1 OFF switch, 1 ON switch): -1; higher = weaker reporter binding
Summary of the method: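 The reported apparent KD is a per-design median over clusters, from curve fits of normalised cluster fluorescence. Protein titrations used SNAP-549-labelled MS2 coat protein, doubled from 0.7 or 1.5 nM to 3 µM, in Tris-HCl pH 7.5 buffer with KCl, MgCl2, BSA, DTT, tRNA and Tween-20, with no input, 200 uM small-molecule ligand, or an oligonucleotide input. The RNA switches were transcribed on Illumina chips by stalled E. coli RNA polymerase.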

[1] = Eterna round: R95, input ligand: microRNA oligo, concentration not stated
[2] = input ligand: microRNA oligo, concentration not stated
[3] = Eterna round: R95, input ligand: FMN 200 uM
[4] = Eterna round: R95, input ligand: none

Sequence | apparent KD of MS2 coat protein [1] [µM] | apparent KD of MS2 coat protein [2] [µM] | apparent KD of MS2 coat protein (input ligand: FMN 200 uM) [µM] | apparent KD of MS2 coat protein (input ligand: none) [µM] | apparent KD of MS2 coat protein [3] [µM] | apparent KD of MS2 coat protein [4] [µM]
CGUGCGUAUGUGAGGAUAUGCUGGUCCUUGGCUCGGCAGAAGGCACAUGAGGAUCACCCAUGUGGUGUCGUACC [salish99_Bmod_ex4_061] (puzzle: Brourd's mod of Exclusion 4) | 0.0189 | – | – | – | – | –
AUUGUAUGGGAAGGAUAUAGAAUAUUAUUUUAACAUGAGGAUCACCCAUGUAACCUUAUGUGUAGCUAGAAGGUCCGUUUAUUA [Title] (Eterna round: R96, puzzle: Exclusion NG 2) | – | 0.112 | – | – | – | –
CAGUACUGAGGAUAUACAUGAGGAUCACCCAUGUGAUAAGGUUAGGAAACUAACCUAUGUAGAAGGCAGUACUG [Eli x3 4.08] (Eterna round: R97, puzzle: Exclusion 3) | – | – | 0.603 | 0.104 | – | –
UUCACAUGGACAUAAGAUCACAUGAGGAUCACCCAUGUGAAUAACAAGCUUUUUGUUCGUCUUAUGUCCAAUAAUAU [Stov1/14-B3] (Eterna round: R97, puzzle: Sensor, turn-off variant 1) | – | – | 0.0139 | 0.0122 | – | –
CCUCCGUAUAAGGAUAUCGUCCAGGAAACUGGACGAGAAGGUAUGACAUGAGGAUCACCCAUGUGAAAGUGAUG [Mod of Brourd 25 - Jieux - Exclusion 6] (Eterna round: R97, puzzle: Exclusion 6) | – | – | 0.212 | 0.0714 | – | –
AGUACUAUCACGAAAGUGAUAGUACGAGGAGCAAGUGGAACAUGAGGAUCACCCAUGUCCUCAUCUGCUCGUCUUAU [salish99-s2-v2-x008] (Eterna round: R96, puzzle: Sensor v2, turn-off variant 2) | – | 0.172 | 0.0135 | 0.0163 | – | –
AGUACUAUCACGAAAGUGAUAGUACAAUGAGCUUUUGAAACAUGAGGAUCACCCAUGUCCUCGUAAGCUCGUCUUAA [Mat - Sensor v2 - var 2 - Mod - D179] (Eterna round: R96, puzzle: Sensor v2, turn-off variant 2) | – | 0.438 | 0.0257 | 0.0286 | – | –
UUCCGACAUGAGGAUCACCCAUGUAAGGAUAUGCACUAGAGGGCAAACCCUCUUAACGGCAGAAGGUGCAGGGA [Qudile] (Eterna round: R97, puzzle: Exclusion 1) | – | – | 0.115 | 0.015 | – | –
GGCUAGUCAGGAUAUACGAACAUGUCAAAAGACGUGAAGGGACAUGAGGAUCACCCAUGUAGAAGGGACUAGCC [salish99_ex2_r3_004] (Eterna round: R96, puzzle: Exclusion 2) | – | 0.0219 | 0.181 | 0.0275 | – | –
AAAGCGUGAGGAUAUGAGGCGCCGGGCCGGUUGGUGCGGAUUCAGAAGGCACAUGAGGAUCACCCAUGUAGGAA [Excls4-III] (puzzle: Exclusion 4) | 0.0229 | – | – | – | – | –
AGCAUCUGAGGAUAUACUGGGUAUGGAAGGCGAAGGGCCAGACAUGAGGAUCACCCAUGUAGAAGGCAGUUUGC [Esenonan] (puzzle: Exclusion 2) | 0.0784 | – | – | – | – | –
GGACCGCGGCAAGGAUAUCUUUGUCAACAUAAAACAUGAGGAUCACCCAUGUGCAUCUUCGUGUGAGAGAAGGUGCGGCAGUCC [Isisgeri] (Eterna round: R96, puzzle: Exclusion NG 2) | – | 0.113 | 0.222 | 0.127 | – | –
GAUUGACAUGAGGAUCACCCAUGUGAGGAUAUCGGCCGGAUCUUGUUAGCUUCCAUCGCGAGAAGGCACAUAGG [Exclusion 1 V33] (puzzle: Exclusion 1) | 0.0552 | – | – | – | – | –
AUUUUGUCAGGAUAUGAGUAGUAGGACGAAAGUGUUAUUAUUUAGAAGGGACAUGAGGAUCACCCAUGUUUCUC [Bring Us a Shrubbery-02] (puzzle: Exclusion 4) | 0.0122 | – | – | – | – | –
CACGAACAUGAGGAUCACCCAUGUCAGGAUAUGAGGCUUUGCGUGCCGCAUUUUGGUCUUAGAAGGGACAGCCG [Eternabot (L2) Solution 49] (Eterna round: R97, puzzle: Exclusion 1) | – | – | 0.0223 | 0.023 | – | –
AACCUACAUGAGGAUCACCCAUGUGAGGAUAUAUUGGUAUUUAUAUUAUUUUUUAGAGGUAGAAGGCGCGUGAU [JR_Exc1_Sub021] (Eterna round: R97, puzzle: Exclusion 1) | – | – | 0.0142 | 0.0142 | – | –
GUCAGACGAGGAUAUAGAUUUAAGUACAUGAGGAUCACCCAUGUGCAUAUGUAUUUAGAUUUAGAAGGCGUCUGAC [E5/18-A3] (Eterna round: R97, puzzle: Exclusion 5) | – | – | 0.584 | 0.428 | – | –

Sequence | apparent KD of MS2 coat protein [1] [µM] | apparent KD of MS2 coat protein [2] [µM] | apparent KD of MS2 coat protein (input ligand: FMN 200 uM) [µM] | apparent KD of MS2 coat protein (input ligand: none) [µM] | apparent KD of MS2 coat protein [3] [µM] | apparent KD of MS2 coat protein [4] [µM]
AAAUUGUGAGGAUAUUCGUAGUACUCGGAGACGAGUAUUACGGAGAAGGCACAUGAGGAUCACCCAUGUUCCUU [Mat - Exclusion 4 - JL Mod - D20] (Eterna round: R97, puzzle: Exclusion 4) | – | – | 0.0883 | 0.0163 | – | –
AAGAAACAUGAGGAUCACCCAUGUGAGGAUAUGACAAAGAAAAGAAAAGAAAGAAGAAUCAGAAGGCACAAAGG [salish99-ex1_r3_033] (puzzle: Exclusion 1) | 0.0831 | – | – | – | 0.121 | 0.0966
CGUACAAGCUUACUAUAGGACAUGAGGAUCACCCAUGUAAUUGACGUUGCAUACAAUCCGUGGAUCCCGGCUGCUCG [Eternabot (L1) Solution 15] (Eterna round: R97, puzzle: Sensor, turn-off variant 1) | – | – | 0.043 | 0.0516 | – | –
GCUGGUCGAGGAUAUACAUUCGUGCUUCGGCACGUAAGAUCACAUGAGGAUCACCCAUGUAGAAGGCGACCAGC [E2/5-A1] (Eterna round: R97, puzzle: Exclusion 2) | – | – | 0.93 | 0.112 | – | –
AGCAUCUGAGGAUAUACUGGGUAUGGAAGGCGAAGGGCCAGACAUGAGGAUCACCCAUGUAGAAGGCAGUUUGC [Esenonan] (Eterna round: R96, puzzle: Exclusion 2) | – | 0.042 | 0.0392 | 0.0654 | – | –
AGAAUUGCCCAUGGCCGCAAGCUUUUUGCUUGUCUUACCACAUGAGGAUCACCCAUGUGACAUGGGCUCCUUAUAAU [Anargees] (puzzle: Sensor v3, turn-off variant 2) | 0.00932 | – | – | – | 0.0139 | 0.0118
UUAUUACAAGCAAGAUCCCACAUGAGGAUCACCCAUGUGCUCGUCUUAUAAGGUACAGUGACGAAAGUCACAGUACC [Sensor 3, v1 - 0] (puzzle: Sensor v3, turn-off variant 1) | 0.795 | – | – | – | 0.0294 | 0.0223
ACUUACUGAGGAUAUACAUAGAUUUACAUGAGGAUCACCCAUGUUCCUCUAUGUAUAUAUGUAGAAGGCAGAAGAU [Mat - Exclusion 5 - JL Mod - D34] (Eterna round: R97, puzzle: Exclusion 5) | – | – | 0.0569 | 0.0189 | – | –
UUUUUACAUGAGGAUCACCCAUGUGAGGAUAUGGAGCGCGACCGCGCGGUCGCGUACACCAGAAGGCGCAGGAA [1st #75] (Eterna round: R97, puzzle: Exclusion 1) | – | – | 0.0306 | 0.0249 | – | –
GAUCAUGCAGGAUAUACAUUAACCAUGAAAACAUGGAUCAAACAUGAGGAUCACCCAUGUAGAAGGGCAUGAUC [Omei Ex2 A21] (Eterna round: R97, puzzle: Exclusion 2) | – | – | 0.0466 | 0.0259 | – | –
UUUACAAGCUAUAGAUCCCACAUGAGGAUCACCCAUGUUCCUGGCCGUGAGGCUAGGUAAACUAUUGCUCGUCUUAU [JL TOV1 3.66] (Eterna round: R97, puzzle: Sensor, turn-off variant 1) | – | – | 0.252 | 0.294 | – | –
CGCAGACAUGAGGAUCACCCAUGUCAGGAUAUACCUCAUAGCACCAGCUUAUGUAAGGGUAGAAGGGACUUGGA [Eternabot (L1) Solution 81] (Eterna round: R97, puzzle: Exclusion 1) | – | – | 0.0861 | 0.0568 | – | –
GUUUCACAUGAGGAUCACCCAUGUGAGGAUAUGAAUUUGUUAACCGUAGUUAAUAGAUUCAGAAGGCGCGUGAU [JRxlusion 1- Jieux - Exclusion 1] (Eterna round: R97, puzzle: Exclusion 1) | – | – | 0.0666 | 0.0703 | – | –
UUUAAUCAUGUAGGAUAUGCGUGGCGAAGCUAUGCAGAAGGACAUGAGGAUCACCCAUGUUCUAGCGUCUGCGUACAGAUGCUA [JL ENG1 1.36] (Eterna round: R96, puzzle: Exclusion NG 1) | – | 0.033 | 0.334 | 0.047 | – | –
UAUUACCUAGGAUAUACAUGAGGAUCACCCAUGUCACGGGUCAACUUGUCCUACGCGUGUAGAAGGAGGGACCC [JL Ceriza mod 7] (puzzle: Exclusion 3) | 0.0197 | – | – | – | – | –
GUUAAACAUGAGGAUCACCCAUGUAAGGAUAUGCUGAGGUAGAGAUGAAGUGAAUGAAGCAGAAGGUACAAUUG [Mat - Mod of JL D55] (puzzle: Exclusion 1) | 0.0818 | – | – | – | 0.0626 | 0.0788
GUGGCGGAUGCGAACAUGAGGAUCACCCAUGUACAGUCCCUACAGGAUAUCCGCAGUGCCUAGCAGGAGAAGGGUAGGAGCACA [Eternabot solution 40] (Eterna round: R96, puzzle: Exclusion NG 3) | – | 0.0107 | 0.016 | 0.0179 | – | –

From the supplement of paper PMC9170038
